The target in the assay is human G-CSF receptor, class 2 (plasmid pHQ2), form lacking the transmembrane domain (human). As to the kind of experiment: saturation binding of murine 125I-G-CSF to COS cells transfected with pHQ2, Scatchard plot.

We go through 1 substance from US5574136.

Turning to “mouse recombinant G-CSF (granulocyte colony-stimulating factor) (from UniProt P09920) (ligand)”, the Kd amounted to 0.44 nM and the binding sites /cell is 6000 /cell.
